Laboratory results: US20240042051A1, “MCL-1 INHIBITOR ANTIBODY-DRUG CONJUGATES AND METHODS OF USE” (Novartis AG, priority 2020, published 2024)
Blank lines part the entries; values can stand above or below the binder they belong to.

Tests used:
[1] = biological target: Cynomolgus Monkey CD48 (recombinant, CynoCD48 aa29-217) (cynomolgus monkey (Macaca fascicularis)); assay: SPR Biacore T200, antibody captured on protein A chip, CD48 as analyte, 25 °C, 1:1 model
[2] = biological target: hCD48EC:mouse-Ig (non-mutated human CD48-mouse IgG1 fusion protein) (human) (UniProt P09326); assay: ELISA, HEK293T culture supernatant (1:10) with the CD48-mouse Ig construct, antibody at 25, 250 and 500 ng/mL, detection goat anti-mouse IgG (H+L) HRP, Mean OD450-570
Sequence of hCD48EC:mouse-Ig (non-mutated human CD48-mouse IgG1 fusion protein) (human) (P09326 27-220, change not shown): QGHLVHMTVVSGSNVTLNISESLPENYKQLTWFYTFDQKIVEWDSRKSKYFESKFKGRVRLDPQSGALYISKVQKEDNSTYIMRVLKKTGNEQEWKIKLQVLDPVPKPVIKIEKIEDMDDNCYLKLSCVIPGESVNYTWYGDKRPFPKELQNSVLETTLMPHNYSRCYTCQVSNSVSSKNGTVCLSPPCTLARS

2249 (Homo sapiens) = 2249 (Homo sapiens) (UniProt P09326); assay: as above
Sequence of 2249 (Homo sapiens) (P09326 27-220): as the sequence (P09326 27-220, change not shown) above

Kd [1]: 1.5 nM
koff [1]: 0.00037 s⁻¹
kon [1]: 250000 M⁻¹ s⁻¹
B1: NY938 (antibody, human IgG1, kappa, V domains shown)
VH: QVQLVQSGAEVKKPGASVKVSCKASGYTFTEYTMHWVRQAPGQGLEWMGGINPDTGDTSYNQKFTGRATLTVDKSTSTAYMELSSLRSEDTAVYYCARAQFWTTPRFAYWGQGTLVTVSS
VL: DIQMTQSPSSLSASVGDRVTITCKASQDVGTAVAWYQQKPGKVPKLLIYWASTRHTGVPSRFSGSGSGTDFTLTISSLQPEDVATYYCQQYSTYPITFGQGTKLEIKR

EC50 (read off the curve) [2]: 0.02 µg/mL
EC50 (read off the curve) (2249 (Homo sapiens)): 0.03 µg/mL
B2: humanized CD48A (antibody, V domains shown)
VH: QVQLVQSGSELKKPGASVKVSCKASGYTFTDFGMNWVRQAPGQGLEWMGWINTFTGEPSYGNVFKGRFVFSLDTSVSTAYLQISSLKAEDTAVYYCARRHGNGNVFDSWGQGTLVTVSS
VL: EIVLTQSPDFQSVTPKEKVTITCRASQSIGSNIHWYQQKPDQSPKLLIKYTSESISGVPSRFSGSGSGTDFTLTINSLEAEDAATYYCQQSNSWPLTFGGGTKVEIKR
